In assay [1] the target is T1, Human recombinant melanocortin MC1 receptor (human, UniProt Q01726 1-317).
T1 construct: whole, on cells; Eurofins Discovery assay Item 251100; a 3 ug aliquot of receptors from CHO-K1 cells was incubated, filtered and washed (probably a membrane preparation); also called Melanocortin 1 Receptor; MCIR
The experiment in a line: radioligand competition, displacement of [125I]NDP-alpha-MSH from human MC1R (CHO-K1), Example 7. How it is done:
(§1) The binding of Group A MCIR peptide antagonists of the disclosure was evaluated in a competition assay (MC1 Human Melanocortin GPCR Binding (Agonist Radioligand) Assay, Item 251100, Eurofins Discovery). Peptides were synthesized by AnaSpec (Fremont, CA). Human recombinant melanocortin MCI receptors were expressed in CHO-K1 cells in modified HEPES-KOH buffer pH 7.0. A 3 μgs aliquot was incubated with 0.04 nM [¹²⁵I]NDP-α-MSH for 120 minutes at 37° C. Non-specific binding was estimated in the presence of 1 μM NDP-α-MSH. Receptors were filtered and washed, and the filters counted to determine [¹²⁵I]NDP-α-MSH specifically bound. Peptide antagonists of the disclosure having amino acid sequences as set forth in SEQ ID NOS: 11, 16, 25, 27, 32, 35, and 40 were screened at five concentrations. Inhibition curves were obtained by determining the reduction of bound α-MSH in the presence of an amount of, and/or by increasing amounts of, each peptide antagonist.
For orientation: In a radioligand displacement assay an active substance lowers the binding of a labelled ligand.

For assay [2], the target named is T1, Human recombinant melanocortin MC1 …. The assay is described as follows: radioligand competition, displacement of [125I]NDP-alpha-MSH from human MC1R (CHO-K1), Example 1. On the procedure:
as §1, with “determine [¹²⁵I] NDP-α-MSH” for “determine [¹²⁵I]NDP-α-MSH”, “40 (each having a C-terminal —NH2)” for “40”, “five concentrations, as well as a positive control, SEQ ID NO: 1 (Melanostatine-5).” for “five concentrations.”, “antagonist. Non-specific binding of peptide was estimated separately in the presence of a vast excess (1 mM) of unlabeled α-MSH, which occupies all the available receptor binding sites.” for “antagonist.”
Based on the competitive binding curve, the IC₅₀ values were determined (Eurofins or AAT Bioquest IC₅₀ calculator). […]

For six molecules, IC50 results are on record in US20250026787A1 (GLO PHARMA, published 2025).

Square brackets hold non-standard residues; d marks the D form. Ends that are not written are not given here.

T1 sequence (Q01726 whole entry): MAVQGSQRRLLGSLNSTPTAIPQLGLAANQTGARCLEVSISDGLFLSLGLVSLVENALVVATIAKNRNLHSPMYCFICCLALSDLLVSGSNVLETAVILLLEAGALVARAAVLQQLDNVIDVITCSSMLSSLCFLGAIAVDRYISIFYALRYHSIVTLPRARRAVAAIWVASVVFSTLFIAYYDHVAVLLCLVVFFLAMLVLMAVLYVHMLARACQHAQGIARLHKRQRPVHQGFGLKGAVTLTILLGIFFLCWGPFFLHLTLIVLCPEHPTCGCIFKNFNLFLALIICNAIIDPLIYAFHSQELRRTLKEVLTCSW

B1: SEQ ID NO: 32 (peptide)
peptide: IFR[dW]FKPV-NH2
modifications: N-terminus assumed
SMILES: CC[C@H](C)[C@H](N)C(=O)N[C@@H](Cc1ccccc1)C(=O)N[C@@H](CCCNC(=N)N)C(=O)N[C@H](Cc1c[nH]c2ccccc12)C(=O)N[C@@H](Cc1ccccc1)C(=O)N[C@@H](CCCCN)C(=O)N1CCC[C@H]1C(=O)N[C@H](C(N)=O)C(C)C
notes: Printed as Ile-Phe-Arg-dTrp-Phe-Lys-Pro-Val-NH2 (8 residues)
Broadly, the IC50 is the concentration that gives 50% inhibition. For B1, the half-inhibitory concentration (IC50) in assay [1] is less than 200 nM.

B2: SEQ ID NO: 27 (peptide)
peptide: MVFR[dW]FKPV-NH2
modifications: N-terminus assumed
SMILES: CSCC[C@H](N)C(=O)N[C@H](C(=O)N[C@@H](Cc1ccccc1)C(=O)N[C@@H](CCCNC(=N)N)C(=O)N[C@H](Cc1c[nH]c2ccccc12)C(=O)N[C@@H](Cc1ccccc1)C(=O)N[C@@H](CCCCN)C(=O)N1CCC[C@H]1C(=O)N[C@H](C(N)=O)C(C)C)C(C)C
notes: Printed as Met-Val-Phe-Arg-dTrp-Phe-Lys-Pro-Val-NH2
Take B2: in assay [1], the IC50 was greater than 500 nM.

B3: SEQ ID NO: 16 (peptide)
peptide: FV[dF]R[dW]FKPV-NH2
modifications: N-terminus assumed
SMILES: CC(C)[C@H](NC(=O)[C@@H]1CCCN1C(=O)[C@H](CCCCN)NC(=O)[C@H](Cc1ccccc1)NC(=O)[C@@H](Cc1c[nH]c2ccccc12)NC(=O)[C@H](CCCNC(=N)N)NC(=O)[C@@H](Cc1ccccc1)NC(=O)[C@@H](NC(=O)[C@@H](N)Cc1ccccc1)C(C)C)C(N)=O
notes: Printed as Phe-Val-dPhe-Arg-dTrp-Phe-Lys-Pro-Val-NH2
Take B3: the IC50 in assay [1] is less than 200 nM.

B4: SEQ ID NO: 11 (peptide)
peptide: AV[dF]R[dW]FKPV-NH2
modifications: N-terminus assumed
SMILES: CC(C)[C@H](NC(=O)[C@@H]1CCCN1C(=O)[C@H](CCCCN)NC(=O)[C@H](Cc1ccccc1)NC(=O)[C@@H](Cc1c[nH]c2ccccc12)NC(=O)[C@H](CCCNC(=N)N)NC(=O)[C@@H](Cc1ccccc1)NC(=O)[C@@H](NC(=O)[C@H](C)N)C(C)C)C(N)=O
notes: Printed as Ala-Val-dPhe-Arg-dTrp-Phe-Lys-Pro-Val-NH2
Turning to B4, the concentration for half-maximal inhibition (IC50) in assay [1] is 200 to 500 nM.

B5: Melanostatine-5 / Nonapeptide-1 (SEQ ID NO: 1) (peptide)
peptide: MP[dF]R[dW]FKPV
notes: Printed as Met-Pro-D-Phe-Arg-D-Trp-Phe-Lys-Pro-Val; no terminal modification is printed for the control; also called control; positive control
With B5, the IC50 in assay [2] was 120 nM; in assay [1] it was less than 200 nM.

B6: SEQ ID NO: 25 (peptide)
peptide: EV[dF]R[dW]FKPV-NH2
modifications: N-terminus assumed
SMILES: CC(C)[C@H](NC(=O)[C@@H]1CCCN1C(=O)[C@H](CCCCN)NC(=O)[C@H](Cc1ccccc1)NC(=O)[C@@H](Cc1c[nH]c2ccccc12)NC(=O)[C@H](CCCNC(=N)N)NC(=O)[C@@H](Cc1ccccc1)NC(=O)[C@@H](NC(=O)[C@@H](N)CCC(=O)O)C(C)C)C(N)=O
notes: Printed as Glu-Val-dPhe-Arg-dTrp-Phe-Lys-Pro-Val-NH2
With B6, in assay [1], the IC50 was greater than 500 nM.
